The text below walks through data of patent publication US20090311253A1 (AbbVie / Abbott, published 2009).

The target in test [1] is T1, Recombinant Human IL-1β (human, UniProt P01584 117-269).
T1 construct: also called IL-1b; IL-1B
Put plainly: direct bind ELISA. The procedure: (§1) Enzyme Linked Immunosorbent Assays to screen for antibodies that bind a desired target antigen were performed as follows. High bind ELISA plates (Corning Costar # 3369, Acton, Mass.) were coated with 100 μL/well of 10 μg/ml of desired target antigen (R&D Systems, Minneapolis, Minn.) or desired target antigen extra-cellular domain/FC fusion protein (R&D Systems, Minneapolis, Minn.) or monoclonal mouse anti-polyhistidine antibody (R&D Systems # MAB050, Minneapolis, Minn.) in phosphate buffered saline (10×PBS, Abbott Bioresearch Center, Media Prep# MPS-073, Worcester, Mass.) overnight at 4° C. Plates were washed four times with PBS containing 0.02% Tween 20. Plates were blocked by the addition of 300 μL/well blocking solution (non-fat dry milk powder, various retail suppliers, diluted to 2% in PBS) for ½ hour at room temperature. Plates were washed four times after blocking with PBS containing 0.02% Tween 20.
(§2) Plates were washed 4 times with PBS containing 0.02% Tween 20.
(§3) One hundred microliters of enhanced TMB solution (Neogen Corp. #308177, K Blue, Lexington, Ky.) was added to each well and incubated for 10 minutes at room temperature. The reaction was stopped by the addition of 50 μL 1N sulphuric acid. Plates were read spectrophotometrically at a wavelength of 450 nm.
(In general: ELISA stands for enzyme-linked immunosorbent assay.)

Test [2] addresses T2, Recombinant Human TRANCE/RANKL/TNFSF 11 (human, UniProt O14788 69-317).
T2 construct: extracellular domain
T2 sequence (looked up): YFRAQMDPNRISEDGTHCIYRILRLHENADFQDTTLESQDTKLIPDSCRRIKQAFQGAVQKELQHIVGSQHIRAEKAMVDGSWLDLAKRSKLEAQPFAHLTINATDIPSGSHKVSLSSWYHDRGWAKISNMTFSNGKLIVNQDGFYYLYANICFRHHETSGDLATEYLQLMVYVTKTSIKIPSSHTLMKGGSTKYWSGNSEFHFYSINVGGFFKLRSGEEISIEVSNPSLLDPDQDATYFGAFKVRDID
Kind of test: direct bind ELISA. As for the experimental part: as §1, §2, §3

The target in test [3] is T1, Recombinant Human IL-1β. Kind of test: Biacore SPR. As for the experimental part:
(§4) The BIACORE assay (Biacore, Inc, Piscataway, N.J.) determines the affinity of antibodies or DVD-Ig with kinetic measurements of on-rate and off-rate constants. Binding of antibodies or DVD-Ig to a target antigen (for example, a purified recombinant target antigen) is determined by surface plasmon resonance-based measurements with a BiacoreR 1000 or 3000 instrument (Biacore® AB, Uppsala, Sweden) using running HBS-EP (10 mM HEPES [pH 7.4], 150 mM NaCl, 3 mM EDTA, and 0.005% surfactant P20) at 25° C. All chemicals are obtained from Biacore® AB (Uppsala, Sweden) or otherwise from a different source as described in the text. For example, approximately 5000 RU of goat anti-mouse IgG, (Fcγ), fragment specific polyclonal antibody (Pierce Biotechnology Inc, Rockford, Ill.) diluted in 10 mM sodium acetate (pH 4.5) is directly immobilized across a CM5 research grade biosensor chip using a standard amine coupling kit according to manufacturer's instructions and procedures at 25 μg/ml. Unreacted moieties on the biosensor surface are blocked with ethanolamine. Modified carboxymethyl dextran surface in flowcell 2 and 4 is used as a reaction surface. Unmodified carboxymethyl dextran without goat anti-mouse IgG in flow cell 1 and 3 is used as the reference surface. For kinetic analysis, rate equations derived from the 1:1 Langmuir binding model are fitted simultaneously to association and dissociation phases of all eight injections (using global fit analysis) with the use of Biaevaluation 4.0.1 software. Purified antibodies or DVD-Ig are diluted in HEPES-buffered saline for capture across goat anti-mouse IgG specific reaction surfaces. Antibodies or DVD-Ig to be captured as a ligand (25 μg/ml) are injected over reaction matrices at a flow rate of 5 μl/min. The association and dissociation rate constants, kₒₙ (M⁻¹s⁻¹) and koff (s⁻¹) are determined under a continuous flow rate of 25 μl/min. Rate constants are derived by making kinetic binding measurements at different antigen concentrations ranging from […]. The equilibrium dissociation constant (M) of the reaction between antibodies or DVD-Igs and the target antigen is then calculated from the kinetic rate constants by the following formula: KD=koff/kₒₙ. Binding is recorded as a function of time and kinetic rate constants are calculated.

In test [4] the target is T2, Recombinant Human TRANCE/RANKL/TNFSF 11. Kind of test: Biacore SPR. As for the experimental part: as §4
For orientation: In SPR one partner is held on a chip, and binding of the other changes the refractive index at the surface.

The target in test [5] is T1, Recombinant Human IL-1β. Kind of test: cell-based or functional assay.
Another test addresses Recombinant Human IL-9 (human, UniProt P15248 19-144). Put plainly: Biacore SPR. As for the experimental part: as §4
The target in test [6] is T3, Recombinant Human IL-13 (human, UniProt P35225 35-146, limits assumed). Kind of test: cell-based or functional assay.
The target of test [7] is T3, Recombinant Human IL-13. Put plainly: Biacore SPR. The procedure: as §4

Some results are limits rather than exact numbers.

Recombinant Human IL-9, sequence (P15248 19-144 limits assumed): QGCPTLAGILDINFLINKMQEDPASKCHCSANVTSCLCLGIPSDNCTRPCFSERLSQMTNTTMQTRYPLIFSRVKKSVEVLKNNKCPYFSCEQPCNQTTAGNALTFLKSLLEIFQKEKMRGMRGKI
T3 sequence (P35225 35-146 limits assumed): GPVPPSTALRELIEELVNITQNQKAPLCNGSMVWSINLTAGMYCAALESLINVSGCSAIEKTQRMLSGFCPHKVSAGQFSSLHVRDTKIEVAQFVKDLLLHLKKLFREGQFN

B1: DVD126 (bispecific antibody, human IgG1, kappa)
heavy: not shown
light: EIVLTQSPGTLSLSPGERATLSCRASQSVRGRYLAWYQQKPGQAPRLLIYGASSRATGIPDRFSGSGSGTDFTLTISRLEPEDFAVFYCQQYGSSPRTFGQGTKVEIKRTVAAPEIVLTQSPDFQSVTPKEKVTITCRASQSIGSSLHWYQQKPDQSPKLLIKYASQSFSGVPSRFSGSGSGTDFTLTINSLEAEDAAAYYCHQSSSLPFTFGPGTKVDIKRTVAAPSVFIFPPSDEQLKSGTASVVCLLNNFYPREAKVQWKVDNALQSGNSQESVTEQDSKDSTYSLSSTLTLSKADYEKHKVYACEVTHQGLSSPVTKSFNRGEC
notes: outer AB018, inner AB032; vectors V1, V2
For the molecule B1, the concentration giving a half-maximal response (EC50) with Recombinant Human IL-1β [1] came to 4460 nM. Moreover, in test [2], the concentration for a half-maximal effect (EC50) came out at 0.4 nM. In addition, in the test with Recombinant Human IL-1β [3], the dissociation constant (Kd) was less than 0.117 nM, the koff is less than 1e-06 s⁻¹ and the kon worked out at 8520 M⁻¹ s⁻¹. In test [4], the Kd is less than 0.00877 nM, the koff is less than 1e-06 s⁻¹ and the kon amounted to 114000 M⁻¹ s⁻¹. In the test with Recombinant Human IL-1β [5], the “IL-1β Neutralization Assay EC50 (MRC5 cells, hIL-8)” value came to 4.29 nM.

B2: AB056 (antibody, human IgG1, kappa, V domains shown)
VH: QVQLQQSGAELMKPGASVKLSCKATGYTFTGSWIEWIKQRPGHGLEWIGQILPGSGSAYYNEKFKGKATFTADTSSKTVYIQLISLTTEDSAIYYCAREDNYGSSSLAYWGQGTLLTVSA
VL: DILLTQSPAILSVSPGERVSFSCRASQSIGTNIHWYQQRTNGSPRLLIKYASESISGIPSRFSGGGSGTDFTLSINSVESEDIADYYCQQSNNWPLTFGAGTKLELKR
notes: vectors V1 and V2
Take B2: in the test with Recombinant Human IL-9, the Kd was found to be 0.00993 nM, the koff is 5.62e-05 s⁻¹ and the kon came out at 5.66e+06 M⁻¹ s⁻¹.

B3: AB051 (antibody, human IgG1, kappa, V domains shown)
VH: EVTLRESGPGLVKPTQTLTLTCTLYGFSLSTSDMGVDWIRQPPGKGLEWLAHIWWDDVKRYNPALKSRLTISKDTSKNQVVLKLTSVDPVDTATYYCARTVSSGYIYYAMDYWGQGTLVTVSS
VL: DIQMTQSPSSLSASVGDRVTISCRASQDIRNYLNWYQQKPGKAPKLLIFYTSKLHSGVPSRFSGSGSGTDYTLTISSLQPEDIATYYCQQGLTPPLTFGGGTKVEIKR
notes: vectors V1 and V2
Take B3: the “IL-13 Neutralization Assay EC50 (A549 cells, hTARC)” value with Recombinant Human IL-13 [6] was found to be 0.1 nM. The kon with Recombinant Human IL-13 [7] is 2.14e+06 M⁻¹ s⁻¹.

The term EC50 denotes the concentration giving half of the maximal effect. As usually defined, the Kd is the free concentration of one partner at which half of the binding sites on the other are occupied at equilibrium, for simple one-to-one binding. One may read the koff as the first-order rate constant of dissociation. As a reminder, the kon is a measure of how fast the partners come together.
